The chains are these.
B1: WASH complex subunit homolog 3 (Caenorhabditis elegans), O01901 (parent)
chain: MNASSRTKPAIDLNKVPPIDHHRTAVTFNCLIMKMTEMLNNFGNKMEDILEKAEQSLDTADRKLRLMESKLAGMSLEDKSTTATPSSAPEIDEIHESNPSSSQIVEETVEEKPEEHTTTVLIKDDPAYSKYFKMLKLGVLEAGVIQKMKSEGVDPSILKRGDEPSRPQAQTSRNYESSGESTASFSDSD
partner: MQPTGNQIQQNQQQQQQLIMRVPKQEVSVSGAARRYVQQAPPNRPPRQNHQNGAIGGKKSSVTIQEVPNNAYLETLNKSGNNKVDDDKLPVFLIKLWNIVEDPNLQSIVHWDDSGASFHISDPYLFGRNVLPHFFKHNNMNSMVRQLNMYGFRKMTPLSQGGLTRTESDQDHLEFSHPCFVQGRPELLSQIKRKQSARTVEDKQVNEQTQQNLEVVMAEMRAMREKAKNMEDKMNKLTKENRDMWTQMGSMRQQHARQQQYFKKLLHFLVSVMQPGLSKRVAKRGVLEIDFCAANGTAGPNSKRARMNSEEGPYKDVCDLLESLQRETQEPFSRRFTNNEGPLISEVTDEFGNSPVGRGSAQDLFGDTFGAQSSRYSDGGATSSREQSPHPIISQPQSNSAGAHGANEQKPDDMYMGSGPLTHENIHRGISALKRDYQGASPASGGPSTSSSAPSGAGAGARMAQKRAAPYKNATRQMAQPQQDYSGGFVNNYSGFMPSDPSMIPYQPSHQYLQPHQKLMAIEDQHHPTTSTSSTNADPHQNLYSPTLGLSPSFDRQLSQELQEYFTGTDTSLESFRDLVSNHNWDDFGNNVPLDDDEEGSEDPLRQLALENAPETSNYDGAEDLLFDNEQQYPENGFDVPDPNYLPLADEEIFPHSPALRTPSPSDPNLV

Variants of B1 are the subject of this assay. The conditions noted are these: with hsf1_caeel hsf-1, G5EFT5.
Regarding T182A, the “effect of a mutation on the interaction” value is “increasing interaction”.

(Values after IntAct's records for PubMed 22265419.)
